Patent publication US20020165381A1, “Human androgen receptor variants” (priority 2000, published 2002)

T1: AR (Homo sapiens, UniProt P10275)
T1 sequence (P10275 1-920): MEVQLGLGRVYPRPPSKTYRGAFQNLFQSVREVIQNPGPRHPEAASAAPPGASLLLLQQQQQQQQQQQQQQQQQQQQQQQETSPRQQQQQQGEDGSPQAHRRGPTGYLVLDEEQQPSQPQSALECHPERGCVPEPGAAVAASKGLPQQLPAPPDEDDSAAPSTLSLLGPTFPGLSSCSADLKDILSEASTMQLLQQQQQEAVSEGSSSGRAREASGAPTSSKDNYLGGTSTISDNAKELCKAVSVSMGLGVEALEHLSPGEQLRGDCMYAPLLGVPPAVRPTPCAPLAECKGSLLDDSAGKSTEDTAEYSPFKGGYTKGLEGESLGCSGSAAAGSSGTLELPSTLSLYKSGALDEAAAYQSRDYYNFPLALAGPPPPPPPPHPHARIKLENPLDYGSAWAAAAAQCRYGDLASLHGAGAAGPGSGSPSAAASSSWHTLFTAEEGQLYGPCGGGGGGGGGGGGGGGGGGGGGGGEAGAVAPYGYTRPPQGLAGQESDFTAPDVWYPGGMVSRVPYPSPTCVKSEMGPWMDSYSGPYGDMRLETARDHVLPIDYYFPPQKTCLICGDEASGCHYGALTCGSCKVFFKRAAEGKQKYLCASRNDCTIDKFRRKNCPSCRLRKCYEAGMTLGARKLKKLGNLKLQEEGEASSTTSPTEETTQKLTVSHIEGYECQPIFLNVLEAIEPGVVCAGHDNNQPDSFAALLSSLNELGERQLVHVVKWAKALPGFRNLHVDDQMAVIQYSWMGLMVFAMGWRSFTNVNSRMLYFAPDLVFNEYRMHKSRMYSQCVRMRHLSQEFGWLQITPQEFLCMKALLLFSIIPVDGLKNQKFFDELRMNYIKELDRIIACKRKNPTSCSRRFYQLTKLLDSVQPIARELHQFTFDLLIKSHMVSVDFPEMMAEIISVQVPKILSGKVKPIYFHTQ


What was measured:
AR [1] = molecular target: T1, AR; assay: Transrepressing activity of AR42 and AR32 in CV-1 cells (luciferase reporter, Example 5); assay type: cell-based; design: expressed in transfected cells; host or cells: CV-1 cells; details: constant amount of pSG5-AR, varying amounts of pSG5-AR42 or pSG5-AR32, after treatment with an androgen
Text: (§1) A vector for the transient expression of AR42, AR32 or AR is built in the pSG5 plasmid (Stratagene). A constant amount of pSG5-AR and varying amounts of pSG5-AR42 or pSG5-AR32 are transfixed in CV-1 cells. In the control, a pSGS plasmid, which contains an irrelevant cDNA of similar length, is cotransfixed with the pSG5-AR. In addition, a reporter plasmid, which contains one or more copies of a steroid-response element or a selective androgen-response element, coupled to a luciferase reporter gene, is cotransfixed. After treatment with an androgen, an increase in the reporter gene activity is measured.

[2] = system: MMTV promoter reporter plasmid in PC-3 cells; assay: Transactivation reporter assay: pSG5-AR42 co-transfixed with MMTV promoter reporter plasmid in PC-3 cells, treated with androgens; assay type: cell-based, human; details: 100 ng pSG5-AR42 + 100 ng MMTV reporter plasmid, R1881, testosterone or DHT at 10^-7 M
Protocol: 100 ng of pSG5-AR42 was co-transfixed in PC-3 together with 100 ng of a reporter plasmid, which contains the MMTV promoter. These cells were then treated with various androgens (R1881: metribolone; T: testosterone; DHT: 5α-dihydrotestosterone) with a final concentration of 10^−7 M.
A vector for the transient expression of AR42 or AR32 is built in the pSG5 plasmid (Stratagene). This vector is transfixed in CV-1 or PC-3 cells. Parallel to this, a reporter plasmid that contains one or more copies of a steroid response element or a selective androgen response element, coupled to a luciferase reporter gene, is cotransfixed. To find specific effectors of AR42 or AR32, a high-throughput screening of substance banks is to be performed. Substances that trigger the activity of the reporter gene at a concentration of 10^−6 M or less are further processed. The search for receptor antagonists is performed in the presence of 10^−9 M androgen, e.g., R1881. Substances are selected that at least divide in half the androgen induction at a concentration of 10^−6 M or less.

AR [3] = molecular target: T1, AR; assay: Transrepressing activity: pSG5-AR and different amounts of pSG5-AR42 co-transfixed in PC-3 cells with MMTV reporter plasmid; assay type: cell-based; design: expressed in transfected cells; details: 10 ng pSG5-AR, different amounts of pSG5-AR42, 100 ng MMTV reporter plasmid, R1881 10^-9 M
Protocol: 10 ng of pSG5-AR and different amounts of pSG5-AR42 were co-transfixed in PC-3 cells. In addition, 100 ng of a reporter plasmid, which contains the MMTV promoter, was transfixed.
as §1

Molecule	transrepressing activity (reporter gene activity of stimulated AR) (AR [1])	transactivating function (reporter gene activity) [2]	transrepressing activity (reporter gene activity of stimulated AR) (AR [3])
AR32: androgen receptor variant according to the invention with the amino acid sequence indicated in Seq ID NO 4 (protein, listed as Homo sapiens) MILWLHSLETARDHVLPIDYYFPPQKTCLICGDEASGCHYGALTCGSCKVFFKRAAEGKQKYLCASRNDCTIDKFRRKNCPSCRLRKCYEAGMTLGARKLKKLGNLKLQEEGEASSTTSPTEETTQKLTVSHIEGYECQPIFLNVLEAIEPGVVCAGHDNNQPDSFAALLSSLNELGERQLVHVVKWAKALPGFRNLHVDDQMAVIQYSWMGLMVFAMGWRSFTNVNSRMLYFAPDLVFNEYRMHKSRMYSQCVRMRHLSQEFGWLQITPQEFLCMKALLLFSINCERAASVHF	inhibit these transactivating effects of stimulated AR		
AR42: androgen receptor variant according to the invention with the amino acid sequence indicated in Seq ID NO 2 (protein, listed as Homo sapiens) MILWLHSLETARDHVLPIDYYFPPQKTCLICGDEASGCHYGALTCGSCKVFFKRAAEGKQKYLCASRNDCTIDKFRRKNCPSCRLRKCYEAGMTLGARKLKKLGNLKLQEEGEASSTTSPTEETTQKLTVSHIEGYECQPIFLNVLEAIEPGVVCAGHDNNQPDSFAALLSSLNELGERQLVHVVKWAKALPGFRNLHVDDQMAVIQYSWMGLMVFAMGWRSFTNVNSRMLYFAPDLVFNEYRMHKSRMYSQCVRMRHLSQEFGWLQITPQEFLCMKALLLFSIIPVDGLKNQKFFDELRMNYIKELDRIIACKRKNPTSCSRRFYQLTKLLDSVQPIARELHQFTFDLLIKSHMVSVDFPEMMAEIISVQVPKILSGKVKPIYFHTQ	inhibit these transactivating effects of stimulated AR	does not have any transactivating function	inhibited the transactivating effects of stimulated AR
